Assay [1] deals with human ErbB2, full length, on cells (human) (UniProt P04626). Briefly: cell-based or functional assay.
Assay [2] has as its target human ErbB2 ECD-myc/His fusion protein (human) (UniProt P04626). The experiment in a line: SPR, Biacore T100 high resolution; mAb captured on goat anti-human IgG, hHer-2(ECD)cMyc injected; 1:1 fit.

On to chimeric anti-hErbB2 antibody 2C4, for which, in assay [1], the % Inhibition @10 µg/ml, Heregulin-induced MCF7 cell proliferation amounted to 90%; the EC50 (ng/ml) n1, inhibition of Heregulin-induced ErbB2 phosphorylation in MCF7 cells is 43.6 ng/mL; the EC50 (ng/ml) n2, inhibition of Heregulin-induced ErbB2 phosphorylation in MCF7 cells turned out to be 14.6 ng/mL; the EC50 (ng/ml), inhibition of Heregulin-induced MCF7 cell proliferation amounted to 404 ng/mL. For the same substance, in assay [1], the EC50 (ng/ml), inhibition of SKBR3 cell proliferation was more than 36000 ng/mL; the N1 % Inhibition @40 µg/ml, BT474 cell proliferation was -9%; the N1 EC50 (ng/ml), inhibition of BT474 cell proliferation is more than 40000 ng/mL; the N2 EC50 (ng/ml), inhibition of BT474 cell proliferation amounted to 4750 ng/mL. Also, the dissociation constant Kd (as a rule, the constant that tells how readily two partners part at equilibrium) in assay [2] was 3.2 nM.

Source of the values: patent US20130089544A1.
